# Results taken from paper PMC10833071.
# B1: BioT6SS1-p (dsDNA)
# DNA 1: TATCGCAATAAAAATGCCACTCATGTTTTAATATA
# DNA 2: TATATTAAAACATGAGTGGCATTTTTATTGCGATA
# B2: T6SS1-p (unlabeled) (dsDNA)
# DNA 1: B1 DNA 1
# DNA 2: B1 DNA 2
# Experiments:
# His6-Fur [1] = target: T1, His6-Fur (UniProt Q66DC2 1-148); assay: EMSA; 5 mM MgCl2, 50 ng poly(dI-dC); […] (pH not stated); ITC: PBS, 25 C; conditions: protein: recombinant; tags: His6; chain copies: 2; label: 5' biotin (BioT6SS-1pF); blunt
# His6-Fur [2] = target: T1, His6-Fur; assay: competition; […] (pH not stated); ITC: PBS, 25 C; conditions: protein: recombinant; tags: His6; chain copies: 2; blunt
Binder,binding result (His6-Fur [1]),binding result (His6-Fur [2])
B1,binds,–
B2,–,binds
